In the RNAGym collection of RNA variant scans (doi:10.1093/nar/gkz1192):

B1: CPEB3 Ribozyme (parent)
chain: UAACAGGGGGCCACAGCAGAAGCGUUCACGUCGCAGCCCCUGUCAGAUUCUGGUGAAUCUGCGAAUUCUGCUGUAUAUCUC

Variants of: B1
Test: self-cleavage, relative activity (ratio to wild type); higher = more cleavage; in vitro, sequencing
How it was run: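 After error-prone PCR and barcoding, CPEB3 ribozyme mutant libraries were transcribed with T7 RNA polymerase at 37°C for 5 hours, then given 15 min with DNase I before an EDTA stop, and they cleaved during both steps. Reverse transcription with template switching preceded Illumina sequencing. Relative activity divides a variant's cleaved/total read fraction by the unmutated ribozyme's. At least 5 reads were required per variant, and three batches were averaged.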

Variant | self-cleavage
G9A A56U | 0.23
G9A A57G | 0.22
G9A A57U | 0.15
G9A A64C | 0.06
G9A A64G | 0.3
G9A A64U | 0.39
G9A A65G | 0.22
G9A A65U | 0.17
G9A A75G | 0.31
G9A A77C | 0.17
G9A A77G | 0.3
G9A A77U | 0.23
G9A C17G | 0.1
G9A C17U | 0.23
G9A C23U | 0.07
G9A C27A | 0.04
G9A C32U | 0.2
G9A C34A | 0.2
G9A C37U | 0.15
G9A C38A | 0.25
G9A C40U | 0.08
G9A C68U | 0.27
G9A C79U | 0.16
G9A C81U | 0.35

Variant | self-cleavage
G9A G10A | 0.45
G9A G10C | 0.2
G9A G16A | 0.17
G9A G22C | 0.32
G9A G24A | 0.22
G9A G24C | 0.2
G9A G30A | 0.18
G9A G30U | 0.06
G9A G33A | 0.08
G9A G42A | 0.3
G9A G46A | 0.13
G9A G52A | 0.24
G9A G52C | 0.13
G9A G53A | 0.35
G9A G55C | 0.24
G9A G61A | 0.06
G9A G63A | 0.12
G9A G73A | 0.47
G9A U25A | 0.2
G9A U25C | 0.21
G9A U26A | 0.29
G9A U26C | 0.21
G9A U26G | 0.07
G9A U31A | 0.16

Variant | self-cleavage
G9A U31C | 0.29
G9A U41A | 0.19
G9A U41C | 0.43
G9A U41G | 0.26
G9A U43A | 0.39
G9A U43C | 0.29
G9A U43G | 0.22
G9A U48C | 0.36
G9A U49A | 0.19
G9A U49C | 0.23
G9A U51A | 0.27
G9A U51C | 0.37
G9A U54A | 0.13
G9A U54C | 0.33
G9A U58A | 0.07
G9A U58C | 0.25
G9A U58G | 0.08
G9A U60A | 0.22
G9A U60C | 0.14
G9A U66A | 0.11
G9A U66C | 0.24
G9A U67A | 0.11
G9A U67C | 0.08
G9A U69A | 0.21

Variant | self-cleavage
G9A U69C | 0.1
G9A U69G | 0.2
G9A U72A | 0.23
G9A U72C | 0.39
G9A U74C | 0.6
G9A U76A | 0.45
G9A U76C | 0.34
G9A U78A | 0.44
G9A U78C | 0.25
G9A U80A | 0.21
G9A U80C | 0.23
G9C | 0.24
G9C A15C | 0.34
G9C A15G | 0.39
G9C A15U | 0.1
G9C A18G | 0.16
G9C A18U | 0.08
G9C A20G | 0.06
G9C A21U | 0.23
G9C A28G | 0.07
G9C A35G | 0.27
G9C A45C | 0.25
G9C A45U | 0.13
G9C A47G | 0.21

Variant | self-cleavage
G9C A56G | 0.24
G9C A57U | 0.24
G9C A64G | 0.08
G9C A64U | 0.23
G9C A65G | 0.32
G9C A75G | 0.17
G9C A77C | 0.18
G9C C34A | 0.14
G9C C44U | 0.18
G9C C71G | 0.05
G9C C79A | 0.58
G9C G30A | 0.1
G9C G30C | 0.06
G9C G30U | 0.22
G9C G52A | 0.55
G9C G55A | 0.41
G9C U25C | 0.07
G9C U31A | 0.19
G9C U31C | 0.22
G9C U41C | 0.15
G9C U43C | 0.13
G9C U51A | 0.09
G9C U54C | 0.41
G9C U58G | 0.06

Variant | self-cleavage
G9C U60A | 0.15
G9C U60C | 0.25
G9C U67C | 0.11
G9C U72C | 0.37
G9C U72G | 0.09
G9C U74C | 0.26
G9C U76C | 0.3
G9U | 0.24
G9U A13G | 0.24
G9U A15C | 0.36
G9U A15G | 0.14
G9U A15U | 0.32
G9U A18C | 0.18
G9U A18G | 0.19
G9U A18U | 0.2
G9U A20G | 0.34
G9U A21G | 0.22
G9U A28G | 0.11
G9U A28U | 0.13
G9U A35C | 0.14
G9U A35G | 0.33
G9U A35U | 0.14
G9U A45C | 0.05
G9U A45G | 0.11

Variant | self-cleavage
G9U A45U | 0.04
G9U A47G | 0.29
G9U A56C | 0.29
G9U A56G | 0.14
G9U A56U | 0.29
G9U A57G | 0.25
G9U A64G | 0.15
G9U A64U | 0.06
G9U A65G | 0.17
G9U A75G | 0.13
G9U A75U | 0.17
G9U A77U | 0.16
G9U C12U | 0.2
G9U C14U | 0.11
G9U C29U | 0.13
G9U C37U | 0.07
G9U C38A | 1.09
G9U C40A | 0.14
G9U C40U | 0.19
G9U C59U | 0.06
G9U C62U | 0.13
G9U C81U | 0.27
G9U G19U | 0.07
G9U G24C | 0.11

Variant | self-cleavage
G9U G36A | 0.15
G9U G36C | 0.07
G9U G52U | 0.18
G9U G53U | 0.36
G9U G55A | 0.41
G9U G63A | 0.08
G9U G70A | 0.1
G9U U25C | 0.14
G9U U26C | 0.19
G9U U26G | 0.09
G9U U31C | 0.13
G9U U31G | 0.06
G9U U41A | 0.15
G9U U41C | 0.32
G9U U43A | 0.52
G9U U43C | 0.15
G9U U43G | 0.12
G9U U48C | 0.29
G9U U49A | 0.41
G9U U49C | 0.11
G9U U51A | 0.14
G9U U51C | 0.17
G9U U54A | 0.08
G9U U54C | 0.1

Variant | self-cleavage
G9U U58C | 0.14
G9U U60A | 0.15
G9U U60C | 0.06
G9U U66C | 0.15
G9U U66G | 0.11
G9U U67A | 0.11
G9U U67C | 0.24
G9U U69A | 0.11
G9U U69C | 0.11
G9U U69G | 0.18
G9U U72A | 0.09
G9U U72C | 0.26
G9U U74C | 0.32
G9U U76A | 0.39
G9U U76C | 0.13
G9U U78A | 0.27
G9U U78C | 0.2
G9U U80A | 0.26
G9U U80C | 0.24
G10A | 0.26
G10A A13C | 0.28
G10A A13G | 0.26
G10A A13U | 0.28
G10A A15G | 0.24

Variant | self-cleavage
G10A A15U | 0.2
G10A A18C | 0.35
G10A A18G | 0.23
G10A A18U | 0.15
G10A A20C | 0.22
G10A A20G | 0.3
G10A A20U | 0.23
G10A A21C | 0.15
G10A A21G | 0.24
G10A A21U | 0.13
G10A A28C | 0.1
G10A A28G | 0.21
G10A A28U | 0.17
G10A A35G | 0.55
G10A A35U | 0.11
G10A A45G | 0.22
G10A A45U | 0.19
G10A A47G | 0.12
G10A A56G | 0.15
G10A A56U | 0.12
G10A A57G | 0.29
G10A A57U | 0.05
G10A A64C | 0.18
G10A A64G | 0.24

Variant | self-cleavage
G10A A64U | 0.15
G10A A65C | 0.09
G10A A65G | 0.12
G10A A65U | 0.14
G10A A75G | 0.19
G10A A77G | 0.08
G10A A77U | 0.04
G10A C11U | 0.5
G10A C17A | 0.23
G10A C17G | 0.3
G10A C17U | 0.06
G10A C23A | 0.06
G10A C27G | 0.16
G10A C29U | 0.13
G10A C32A | 0.06
G10A C32U | 0.19
G10A C34U | 0.05
G10A C38U | 0.08
G10A C39A | 0.37
G10A C40A | 0.19
G10A C40U | 0.15
G10A C44U | 0.21
G10A C59A | 0.06
G10A C71A | 0.11

Variant | self-cleavage
G10A C71G | 0.12
G10A C71U | 0.08
G10A C81G | 0.3
G10A G24A | 0.16
G10A G30U | 0.17
G10A G33A | 0.19
G10A G36A | 0.26
G10A G42C | 0.16
G10A G42U | 0.38
G10A G46U | 0.17
G10A G53A | 0.29
G10A G53C | 0.33
G10A G55A | 0.36
G10A G55U | 0.07
G10A G61C | 0.09
G10A U25A | 0.26
G10A U25C | 0.23
G10A U25G | 0.14
G10A U26A | 0.07
G10A U26C | 0.22
G10A U26G | 0.05
G10A U31C | 0.2
G10A U41A | 0.29
G10A U41C | 0.31

Variant | self-cleavage
G10A U41G | 0.38
G10A U43A | 0.28
G10A U43C | 0.06
G10A U43G | 0.19
G10A U48C | 0.2
G10A U49C | 0.19
G10A U49G | 0.18
G10A U51A | 0.33
G10A U51C | 0.24
G10A U54A | 0.35
G10A U54C | 0.19
G10A U54G | 0.16
G10A U58A | 0.24
G10A U58C | 0.18
G10A U60A | 0.14
G10A U60C | 0.2
G10A U60G | 0.06
G10A U66C | 0.2
G10A U67C | 0.25
G10A U69A | 0.11
G10A U69C | 0.2
G10A U69G | 0.36
G10A U72A | 0.22
G10A U72C | 0.39

Variant | self-cleavage
G10A U72G | 0.24
G10A U74A | 0.25
G10A U74C | 0.25
G10A U74G | 0.14
G10A U76A | 0.23
G10A U76C | 0.33
G10A U78C | 0.24
G10A U78G | 0.33
G10A U80A | 0.06
G10A U80C | 0.25
G10A U80G | 0.25
G10C | 0.25
G10C A15G | 0.08
G10C A15U | 0.08
G10C A18G | 0.13
G10C A18U | 0.12
G10C A20G | 0.19
G10C A20U | 0.42
G10C A21G | 0.18
G10C A28C | 0.16
G10C A28G | 0.14
G10C A35G | 0.28
